Measured values taken from the nanobody polyreactivity screen of Harvey et al. (2022).

Experiment: yeast display, Sf9 membrane polyspecificity reagent, FACS + sequencing; frameworks hold sequencing errors
Outline: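 A synthetic nanobody library was expressed on Saccharomyces cerevisiae BJ5465 by galactose induction for 36–48 hours. The library was stained for 1 hour at 4 °C with 10% biotinylated, detergent-solubilized Sf9 membrane reagent and enriched with streptavidin microbeads before FACS. Low and high (top ~1%) gates were set on anti-HA fluorescence for expression and streptavidin fluorescence for reagent binding, and each polyreactivity label reflects the gate of origin.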

Sequence	polyreactivity (PSR sort gate)
QVQLVESGGGLVQAGGSLRLSCAASGRTFRGNVMGWYRQATGKEREFVAAITRSGSNTYYADSVKGRFTISRDYAKTTVYLQMNSLKPEDTAVYDCAKSVLLGYKRHDSWGQGTQVTVSS	high polyreactivity
QVQLVESGGGLVQAGGSLRLSCAASGFTFIKYAMGWYRQAPGKEREFDATISWNGGNTYYADSVKGRFTISRDKAKNTVYLQMNSLKPEDTAVYYCAARVKYRTRGGTVVSYDYWGQGTQVTVSS	high polyreactivity
QVQLVESGGGLVQAGGSRRLTCAASGSTFTQYPMGWYRQAPGKERELVAGISWGGSSTYYADSVKGRFTISRDNAKNTVYLEMNSLKPEDSEVYYCASAVWREYGYYFVYWDYSWGQGTQGTVSS	low polyreactivity
HDQLVESGGGLVEAGGSLRLSCAASGITFKGYAMGWYRPAPGKERELVAAITSGGSTKYADSVKGRFTSSRDNAKNTVYLQMNSLKPEDTAVYYCAAAVVNYGWWTYGYYGFGYWGQGTQVTVSS	high polyreactivity
QVQLVESGGGLVQAGGSLRLSCAASGSTFRGNAMGWYRQAPGKERELVAAITGRGGRTYYADSVKGRFTISRDNAKNTVYLQMNSLKPEDTAVYYCAAYSRYKPYGITAYDYWGQGTQVNVSS	high polyreactivity
QVQHVESGGGLVQAGGSLRLSCAASGFTFAIYGKGWYRQAPGKERELVAAINWSGGRTYYADSVKGRFTISRDNAKNTVYVQMQSLKPDDTAVYYCAARYVSRWYDYEFWGQGTQVTVSS	high polyreactivity
QVQLVESGGGLVQAGGSLRLSCAASGRTFTHNVMGWYRQAPGKERELVAGISSTGGSTYYADSVKGRFTISRDNAKNTVYLQMNSLKPEDTAVYYCAVIGYHYSAISPPSQTRQGYDYWGQGTQVTLSS	low polyreactivity
QVQLVESGGGLVQAGGSLRLSCAASGFTFLYNTMGWYRQAPGKERELVAAISIRGGSTYYADSVKGRFTISRDNAKNTVYLQMNSLKPEETAVYYCAARTPPPSSRSRVYYWGLGTQVTVSS	high polyreactivity
TYRGTTTYYADSVKGRFPIARDYAKNTVYLQMHSLKPEETAVYNWTRYYPSEYDYWGQGTHVTVSS	high polyreactivity
QVQLVESGGALVQAGGSLRLSCAASGSISWKNAMGWYRKAPGKERELVAAISSTVTYYADSVKGRFTISRDNAKNTVYLQMNRLKPADTAVYYCAAEYLAYTTLYTGDYWGQGTQVTVSS	low polyreactivity
QVQLVESGGGLDQARGSLRLSCAASGLTFASNAMGWYRQAPGKERELVAAISWSDGSTYYADSVKGRFTISRDNAKNTVYLQMNSLKPEDTAVYYCAAEPPGFRTSRVGYWGQGTQVTVSS	low polyreactivity
QVQLVESGGGLVQAGGSLRLSCAASGSIFYFNAMGWYRQAPGKERELVAAINISGSSTSYADSVKGRFTISRDNAKNTVYLQMNSLKPEDTAVYYCYAGPYTYLHWNQAISRYYYWGQGTQVTVSS	low polyreactivity
QVQLVESGGGLVQAGGSLRLSCAASGGTFRVYVMGWYRQAPGKERELVAAISRGGGSTYYADSVKGRFTISRDNAKNTVYLQMNSLKPEDTAVYYCAARVWRYPWRASEYDYWGQGTQVTVSS	high polyreactivity
QVQLVESGGGLVQAGGSLRLSCAASGLIFSRNAMGWYRQAPGKERELVAAISGGGGSTYYADSVKGRFTISRDNAKNTVYLQMNSLKPEATAVYYCAAKGYWWLTPWIATYDYWGQGTQVTVSS	high polyreactivity
QVQLVESGGGLVQAGGSLRLSCAASGGTFRAYVMGWYRQAPGKERELVAAISRSGTRTYYADSVKGRFTISRDNAKNTVYLQMNSLKPEDTAVYYCAAAAKSWLFDYWGQGTQVTVSS	high polyreactivity
QVQLVESGGGLVQAGGSLRLSCAASGSTLRHNVMGWYRQAPGKERELVAAITFSGGSTTYADSVKGRFTISRDNAKNTVYLQMNSLKPEDTAVYYCNAVYAGAGSFHPGYGYWGQGTQVTVSS	low polyreactivity
QDHLVESGGGLVQAGCSLRLTCAASGSIFIPNAMGWYRQAPGKERYLVAAIRSGGSSYYADSVKGRFTISRDNAKNTVYLQMNSLKPEDTAVYYCAADTYTYYYYLARYYYWGQGTQVTVSS	low polyreactivity
